# According to patent US8367390B2, “Galactanase variants” (Novozymes A/S, priority 2002, dated 2013):
# Assay: Activity with ONPG, release of o-nitrophenol (ONP) at 405 nm
# Assay type: biochemical
# Conditions: enzyme 110 μg/ml, ONPG 5 mg/ml
# Description: The activity of HIGAL and MTGAL with ONPG was tested by mixing 200 microliters (normally 5.5 mg/ml) ONPG in 50 mM sodium acetate, 1 mM CaCl2, 0.01% Triton X-100, pH 6.5 with 25 microliters galactanase (normally 1 mg/ml) in the well of a microtiter plate. Release of o-nitrophenol (ONP) was measured at room temperature at 405 nm every 10 seconds normally for 30 min on a SpectraMaxPlus (Molecular Devices). Effects on the observed release of ONP was studied with varied enzyme concentration, ONPG concentration and with addition of galactose (Gal), beta-1,4-galactobiose (Gal2) (Megazyme), beta-1,4-galactotriose (Gal3), beta-1,4-galactotetraose (Gal4), glucose (Glu), arabinose (Ara), galacturonic acid (GalA), maltose (Mal) or maltotriose (Mal3).
# In Tables 8-11 below, incubation times required to increase the observed absorbance at 405 nm by given amounts are listed. Cells marked ‘n.r.’ indicate that the increase in absorbance was not reached in the experiment. In general, the initial increase in absorbance at 405 nm was very slow, but after a lag phase the rate of ONP release often increased drastically—often approximately exponentially. The most likely explanation for the observed kinetics is that ONPG reacts with the enzyme to give an enzyme-galactosyl intermediate which hydrolyses very slowly. Instead, the Gal of the intermediate is released by transglycosylation, initially with ONPG or added sugar as acceptor. In cases where the rate of ONP release increases, these transglycosylation products are even better acceptors than the initial ones. […] More likely, Gal inhibits the subsequent transglycosylation, which requires binding of ONPG to the +1 and +2 subsites, e.g., by binding to the +2 subsite. With 50 mg/ml Gal added (results not shown) release of ONP was even slower with only insignificant increase of absorbance at 405 nm in 30 min.
# [1] = Table 11, no sugar, first experiment
# [2] = Table 11, no sugar, second experiment
# [3] = Table 11, no sugar, third experiment
molecule,measurement,setting,value
"HIGAL: GH Family 53 galactanase from Humicola insolens, SEQ ID NO: 2 (wild type parent) (protein, listed as Humicola insolens, mat_peptide (1)..()) ALQYKGVDWSSVMVEERAGVRYKNVNGQEKPLEYILAENGVNMVRQRVWVNPWDGNYNLDYNIQLARRAKAAGLGLYINFHYSDTWADPAHQTTPAGWPSDINNLAWKLYNYTLDSMNRFADAGIQVDIVSIGNEITQGLLWPLGKTNNWYNIARLLHSAAWGVKDSRLNPKPKIMVHLDNGWNWDTQNWWYTNVLSQGPFEMSDFDMMGVSFYPFYSASATLDSLRRSLNNMVSRWGKEVAVVETNWPTSCPYPRYQFPADVRNVPFSAAGQTQYIQSVANVVSSVSKGVGLFYWEPAWIHNANLGSSCADNTMFTPSGQALSSLSVFHRI",Initial rate (mOD/min),"Table 10, Gal3 0.5 mg/ml",200 mOD/min
same,Time (min) to increase A405 by: 0.025,"Table 10, Gal3 0.5 mg/ml",0.0 min
same,Time (min) to increase A405 by: 0.05,"Table 10, Gal3 0.5 mg/ml",0.2 min
same,Time (min) to increase A405 by: 0.1,"Table 10, Gal3 0.5 mg/ml",0.3 min
same,Time (min) to increase A405 by: 0.2,"Table 10, Gal3 0.5 mg/ml",0.5 min
same,Time (min) to increase A405 by: 0.4,"Table 10, Gal3 0.5 mg/ml",0.8 min
same,Time (min) to increase A405 by: 0.8,"Table 10, Gal3 0.5 mg/ml",1.5 min
same,Time (min) to increase A405 by: 1.6,"Table 10, Gal3 0.5 mg/ml",2.5 min
same,Time (min) to increase A405 by: 3.2,"Table 10, Gal3 0.5 mg/ml",3.8 min
same,Initial rate (mOD/min),"Table 10, Gal4 0.05 mg/ml",80 mOD/min
same,Time (min) to increase A405 by: 0.025,"Table 10, Gal4 0.05 mg/ml",0.2 min
same,Time (min) to increase A405 by: 0.05,"Table 10, Gal4 0.05 mg/ml",0.5 min
same,Time (min) to increase A405 by: 0.1,"Table 10, Gal4 0.05 mg/ml",0.8 min
same,Time (min) to increase A405 by: 0.2,"Table 10, Gal4 0.05 mg/ml",1.5 min
same,Time (min) to increase A405 by: 0.4,"Table 10, Gal4 0.05 mg/ml",2.5 min
same,Time (min) to increase A405 by: 0.8,"Table 10, Gal4 0.05 mg/ml",3.7 min
same,Time (min) to increase A405 by: 1.6,"Table 10, Gal4 0.05 mg/ml",5.2 min
same,Time (min) to increase A405 by: 3.2,"Table 10, Gal4 0.05 mg/ml",7.5 min
same,Initial rate (mOD/min),"Table 10, Gal4 0.5 mg/ml",700 mOD/min
same,Time (min) to increase A405 by: 0.025,"Table 10, Gal4 0.5 mg/ml",0.0 min
same,Time (min) to increase A405 by: 0.05,"Table 10, Gal4 0.5 mg/ml",0.0 min
same,Time (min) to increase A405 by: 0.1,"Table 10, Gal4 0.5 mg/ml",0.0 min
same,Time (min) to increase A405 by: 0.2,"Table 10, Gal4 0.5 mg/ml",0.2 min
same,Time (min) to increase A405 by: 0.4,"Table 10, Gal4 0.5 mg/ml",0.5 min
same,Time (min) to increase A405 by: 0.8,"Table 10, Gal4 0.5 mg/ml",1.0 min
same,Time (min) to increase A405 by: 1.6,"Table 10, Gal4 0.5 mg/ml",2.2 min
same,Time (min) to increase A405 by: 3.2,"Table 10, Gal4 0.5 mg/ml",5.3 min
same,Initial rate (mOD/min),"Table 10, no sugar",0.9 mOD/min
same,Time (min) to increase A405 by: 0.025,"Table 10, no sugar",10.0 min
same,Time (min) to increase A405 by: 0.05,"Table 10, no sugar",11.3 min
same,Time (min) to increase A405 by: 0.1,"Table 10, no sugar",12.8 min
same,Time (min) to increase A405 by: 0.2,"Table 10, no sugar",14.2 min
same,Time (min) to increase A405 by: 0.4,"Table 10, no sugar",15.7 min
same,Time (min) to increase A405 by: 0.8,"Table 10, no sugar",17.0 min
same,Time (min) to increase A405 by: 1.6,"Table 10, no sugar",18.5 min
same,Time (min) to increase A405 by: 3.2,"Table 10, no sugar",20.0 min
same,Time (min) to increase A405 by: 0.025,"Table 11, Ara 5 mg/ml",26.5 min
same,Time (min) to increase A405 by: 0.05,"Table 11, Ara 5 mg/ml",n.r.
same,Time (min) to increase A405 by: 0.1,"Table 11, Ara 5 mg/ml",n.r.
same,Time (min) to increase A405 by: 0.2,"Table 11, Ara 5 mg/ml",n.r.
same,Time (min) to increase A405 by: 0.4,"Table 11, Ara 5 mg/ml",n.r.
same,Time (min) to increase A405 by: 0.8,"Table 11, Ara 5 mg/ml",n.r.
same,Time (min) to increase A405 by: 1.6,"Table 11, Ara 5 mg/ml",n.r.
same,Time (min) to increase A405 by: 3.2,"Table 11, Ara 5 mg/ml",n.r.
same,Time (min) to increase A405 by: 0.025,"Table 11, GalA 5 mg/ml",9.5 min
same,Time (min) to increase A405 by: 0.05,"Table 11, GalA 5 mg/ml",11.2 min
same,Time (min) to increase A405 by: 0.1,"Table 11, GalA 5 mg/ml",12.7 min
same,Time (min) to increase A405 by: 0.2,"Table 11, GalA 5 mg/ml",14.3 min
same,Time (min) to increase A405 by: 0.4,"Table 11, GalA 5 mg/ml",15.8 min
same,Time (min) to increase A405 by: 0.8,"Table 11, GalA 5 mg/ml",17.5 min
same,Time (min) to increase A405 by: 1.6,"Table 11, GalA 5 mg/ml",19.3 min
same,Time (min) to increase A405 by: 3.2,"Table 11, GalA 5 mg/ml",22.5 min
same,Time (min) to increase A405 by: 0.025,"Table 11, GalA 50 mg/ml",13.7 min
same,Time (min) to increase A405 by: 0.05,"Table 11, GalA 50 mg/ml",16.7 min
same,Time (min) to increase A405 by: 0.1,"Table 11, GalA 50 mg/ml",20.0 min
same,Time (min) to increase A405 by: 0.2,"Table 11, GalA 50 mg/ml",23.3 min
same,Time (min) to increase A405 by: 0.4,"Table 11, GalA 50 mg/ml",26.8 min
same,Time (min) to increase A405 by: 0.8,"Table 11, GalA 50 mg/ml",n.r.
same,Time (min) to increase A405 by: 1.6,"Table 11, GalA 50 mg/ml",n.r.
same,Time (min) to increase A405 by: 3.2,"Table 11, GalA 50 mg/ml",n.r.
same,Time (min) to increase A405 by: 0.025,"Table 11, Glu 5 mg/ml",12.8 min
same,Time (min) to increase A405 by: 0.05,"Table 11, Glu 5 mg/ml",14.8 min
same,Time (min) to increase A405 by: 0.1,"Table 11, Glu 5 mg/ml",17.0 min
same,Time (min) to increase A405 by: 0.2,"Table 11, Glu 5 mg/ml",19.3 min
same,Time (min) to increase A405 by: 0.4,"Table 11, Glu 5 mg/ml",21.8 min
same,Time (min) to increase A405 by: 0.8,"Table 11, Glu 5 mg/ml",24.3 min
same,Time (min) to increase A405 by: 1.6,"Table 11, Glu 5 mg/ml",27.0 min
same,Time (min) to increase A405 by: 3.2,"Table 11, Glu 5 mg/ml",n.r.
same,Time (min) to increase A405 by: 0.025,"Table 11, Mal 5 mg/ml",11.5 min
same,Time (min) to increase A405 by: 0.05,"Table 11, Mal 5 mg/ml",13.0 min
same,Time (min) to increase A405 by: 0.1,"Table 11, Mal 5 mg/ml",14.3 min
same,Time (min) to increase A405 by: 0.2,"Table 11, Mal 5 mg/ml",15.7 min
same,Time (min) to increase A405 by: 0.4,"Table 11, Mal 5 mg/ml",17.2 min
same,Time (min) to increase A405 by: 0.8,"Table 11, Mal 5 mg/ml",18.7 min
same,Time (min) to increase A405 by: 1.6,"Table 11, Mal 5 mg/ml",20.2 min
same,Time (min) to increase A405 by: 3.2,"Table 11, Mal 5 mg/ml",22.0 min
same,Time (min) to increase A405 by: 0.025,"Table 11, Mal3 5 mg/ml",11.0 min
same,Time (min) to increase A405 by: 0.05,"Table 11, Mal3 5 mg/ml",12.3 min
same,Time (min) to increase A405 by: 0.1,"Table 11, Mal3 5 mg/ml",13.8 min
same,Time (min) to increase A405 by: 0.2,"Table 11, Mal3 5 mg/ml",15.2 min
same,Time (min) to increase A405 by: 0.4,"Table 11, Mal3 5 mg/ml",16.5 min
same,Time (min) to increase A405 by: 0.8,"Table 11, Mal3 5 mg/ml",18.0 min
same,Time (min) to increase A405 by: 1.6,"Table 11, Mal3 5 mg/ml",19.3 min
same,Time (min) to increase A405 by: 3.2,"Table 11, Mal3 5 mg/ml",21.3 min
same,Time (min) to increase A405 by: 0.025,[1],8.5 min
same,Time (min) to increase A405 by: 0.05,[1],9.5 min
same,Time (min) to increase A405 by: 0.1,[1],10.8 min
same,Time (min) to increase A405 by: 0.2,[1],12.0 min
same,Time (min) to increase A405 by: 0.4,[1],13.3 min
same,Time (min) to increase A405 by: 0.8,[1],14.5 min
same,Time (min) to increase A405 by: 1.6,[1],15.8 min
same,Time (min) to increase A405 by: 3.2,[1],17.3 min
same,Time (min) to increase A405 by: 0.025,[2],11.0 min
same,Time (min) to increase A405 by: 0.05,[2],12.5 min
same,Time (min) to increase A405 by: 0.1,[2],13.8 min
same,Time (min) to increase A405 by: 0.2,[2],15.2 min
same,Time (min) to increase A405 by: 0.4,[2],16.5 min
same,Time (min) to increase A405 by: 0.8,[2],18.0 min
same,Time (min) to increase A405 by: 1.6,[2],19.5 min
same,Time (min) to increase A405 by: 3.2,[2],21.3 min
same,Time (min) to increase A405 by: 0.025,[3],8.7 min
same,Time (min) to increase A405 by: 0.05,[3],9.8 min
same,Time (min) to increase A405 by: 0.1,[3],11.0 min
same,Time (min) to increase A405 by: 0.2,[3],12.2 min
same,Time (min) to increase A405 by: 0.4,[3],13.3 min
same,Time (min) to increase A405 by: 0.8,[3],14.7 min
same,Time (min) to increase A405 by: 1.6,[3],16.0 min
same,Time (min) to increase A405 by: 3.2,[3],17.3 min
